According to US12570744 (AstraZeneca / MedImmune, dated 2026):
Positions count from the first letter of the chain named.

Tests used:
[1] = biological target: T1, human TIGIT expressed on the cell surface (human, UniProt Q495A1 22-244); experiment: flow cytometry on TIGIT^+ Jurkat cells, mean of two experiments
T1 construct: whole, on cells; also called Jurkat PD-1^-TIGIT^+ cells; TIGIT^+ Jurkat cells
T1 sequence (looked up): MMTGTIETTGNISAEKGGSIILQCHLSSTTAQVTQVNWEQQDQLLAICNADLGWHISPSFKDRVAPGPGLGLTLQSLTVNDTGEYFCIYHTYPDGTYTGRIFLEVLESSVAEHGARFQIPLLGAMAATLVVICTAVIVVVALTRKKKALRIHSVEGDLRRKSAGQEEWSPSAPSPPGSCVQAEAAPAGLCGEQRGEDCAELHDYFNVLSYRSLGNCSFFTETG

[2] = biological target: T1, human TIGIT expressed on the cell …; experiment: flow cytometry on TIGIT^+ Jurkat cells, Experiment #2
[3] = biological target: T1, human TIGIT expressed on the cell …; experiment: cell-based or functional assay
[4] = biological target: T1, human TIGIT expressed on the cell …; experiment: flow cytometry on TIGIT^+ Jurkat cells (the reference itself)
[5] = biological target: T1, human TIGIT expressed on the cell …; experiment: flow cytometry on TIGIT^+ Jurkat cells, Experiment #1
[6] = biological target: T2, human PD-1 expressed on the cell surface of engineered Jurkat cells (human, UniProt Q15116 25-288); experiment: flow cytometry on PD-1^+ Jurkat cells, Experiment #1
T2 construct: whole, on cells; also called Jurkat PD-1^+TIGIT^- cells; PD-1^+ Jurkat cells
T2 sequence (Q15116 25-288, change not shown): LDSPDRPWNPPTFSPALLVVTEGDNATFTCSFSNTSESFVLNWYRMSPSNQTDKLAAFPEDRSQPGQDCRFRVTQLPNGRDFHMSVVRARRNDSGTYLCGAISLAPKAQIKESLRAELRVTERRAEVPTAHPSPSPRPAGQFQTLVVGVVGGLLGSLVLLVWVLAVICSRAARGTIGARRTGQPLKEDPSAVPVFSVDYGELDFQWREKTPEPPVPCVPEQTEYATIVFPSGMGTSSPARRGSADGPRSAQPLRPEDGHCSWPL

[7] = biological target: T2, human PD-1 expressed on the cell …; experiment: flow cytometry on PD-1^+ Jurkat cells (the reference itself)
[8] = biological target: T2, human PD-1 expressed on the cell …; experiment: cell-based or functional assay
[9] = biological target: T2, human PD-1 expressed on the cell …; experiment: flow cytometry on PD-1^+ Jurkat cells, Experiment #2
[10] = biological target: T2, human PD-1 expressed on the cell …; experiment: flow cytometry on PD-1^+ Jurkat cells, mean of two experiments
[11] = biological target: T3, cynomolgus TIGIT overexpressed on 293 cells (cynomolgus, UniProt A0A7N9I9V4 89-312); experiment: flow cytometry (MFI) on 293 cells overexpressing cynomolgus TIGIT; Kd row of the table under the graph, the concentration axis is [nM]
T3 construct: whole, on cells
T3 sequence (A0A7N9I9V4 entry or part of it): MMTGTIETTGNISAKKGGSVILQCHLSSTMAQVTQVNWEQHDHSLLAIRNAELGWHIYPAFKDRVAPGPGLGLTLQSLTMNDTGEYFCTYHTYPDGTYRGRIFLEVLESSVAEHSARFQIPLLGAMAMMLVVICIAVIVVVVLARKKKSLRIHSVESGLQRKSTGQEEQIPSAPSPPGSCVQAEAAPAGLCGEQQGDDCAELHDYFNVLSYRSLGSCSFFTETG

[12] = biological target: T1, human TIGIT expressed on the cell …; experiment: flow cytometry (MFI) on 293 cells overexpressing human TIGIT; Kd row of the table under the graph, the concentration axis is [nM]
[13] = biological target: T1, human TIGIT expressed on the cell …; experiment: flow cytometry (MFI) on 293 cells overexpressing human TIGIT
[14] = biological target: T4, muTIGIT (mouse TIGIT, recombinant) (mouse (printed as 'mu'), UniProt P86176 29-148, limits assumed); experiment: SPR (BIAcore T200), PD-1/TIGIT DuetMab sample, muTIGIT as ligand
T4 construct: Ligand in the BIAcore assay; The construct is not described
T4 sequence (looked up): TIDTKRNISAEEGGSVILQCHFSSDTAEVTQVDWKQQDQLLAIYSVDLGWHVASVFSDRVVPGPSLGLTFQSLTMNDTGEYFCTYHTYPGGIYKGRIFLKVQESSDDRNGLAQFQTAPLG
Protocol: (§1) Binding experiments were carried out using a BIAcore T200 instrument (BIAcore).

[15] = biological target: T5, cyTIGIT (cynomolgus TIGIT, recombinant) (cynomolgus, UniProt A0A7N9I9V4 89-209); experiment: SPR (BIAcore T200), PD-1/TIGIT DuetMab sample, cyTIGIT as ligand
T5 construct: Ligand in the BIAcore assay; The construct is not described
T5 sequence (A0A7N9I9V4 entry or part of it): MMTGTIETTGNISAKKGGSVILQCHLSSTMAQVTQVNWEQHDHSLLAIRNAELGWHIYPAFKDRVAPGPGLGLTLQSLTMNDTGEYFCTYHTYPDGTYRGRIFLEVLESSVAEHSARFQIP
Protocol: as §1

[16] = biological target: T6, recombinant human TIGIT protein (human, UniProt Q495A1 22-141); experiment: SPR (BIAcore T200), PD-1/TIGIT DuetMab sample, huTIGIT as ligand
T6 construct: In the Octet assay it was used biotinylated on streptavidin sensors or in solution; Construct and tags are not described; also called huTIGIT; human TIGIT antigen
T6 sequence (looked up): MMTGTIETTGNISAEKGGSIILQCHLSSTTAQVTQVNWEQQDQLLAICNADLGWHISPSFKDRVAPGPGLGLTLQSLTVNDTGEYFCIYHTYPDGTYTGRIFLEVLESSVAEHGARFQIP
Protocol: as §1

B1: monospecific anti-TIGIT (VAR1) bivalent mAb (antibody, V domains shown)
VH: QVQLVESGGGVVQPGRSLRLSCAASGFTFSSYAMHWVRQAPGKGLEWVAVISYAGEVKYYADSVKGRFTISRDNSKNTLYLQMNSLRAEDTAVYYCARDPLPLHYYGMDVWGQGTTVTVSS
VL: QSVLTQPPSASGTPGQRVTISCSGSSSNIGRRPVNWYQQLPGTAPKLLIYSQNQRPSGVPDRFSGSQSGTSASLAISGLQSEDEADYFCAVWDDIGRVLQLGGGTQLTVL
notes: Bivalent mAb; also called anti-TIGIT mAb; bivalent anti-TIGIT antibody
EC50 [1]: 0.119 nM | EC50 [2]: 0.147 nM | EC50 (nM), NFAT-luciferase reporter, Experiment #1 [3]: 1.59 nM | EC50 (nM), NFAT-luciferase reporter, Experiment #2 [3]: 2.85 nM | Fold Change of Mean EC50 vs. Anti-TIGIT [3]: 1 fold | Mean EC50 (nM), NFAT-luciferase reporter [3]: 2.22 nM | Fold Change vs. anti-TIGIT (mean EC50) [4]: 1 fold | EC50 [5]: 0.092 nM

B2: monospecific anti-PD1 (LO115) bivalent mAb (antibody, V domains shown)
VH: EVQLVESGGGLVQPGGSLRLSCAASGFTFSDYGMHWVRQAPGKGLEWVAYISSGSYTIYSADSVKGRFTISRDNAKNSLYLQMNSLRAEDTAVYYCARRAPNSFYEYYFDYWGQGTTVTVSS
VL: QIVLTQSPATLSLSPGERATLSCSASSKHTNLYWSRHMYWYQQKPGQAPRLLIYLTSNRATGIPARFSGSGSGTDFTLTISSLEPEDFAVYYCQQWSSNPFTFGQGTKLEIK
notes: Bivalent mAb; also called bivalent anti-PD-1 antibody; parental bivalent anti-PD-1 antibody
EC50 [6]: 0.349 nM | Fold Change vs. anti-PD-1 (mean EC50) [7]: 1 fold | EC50 (nM), NFAT-luciferase reporter, Experiment #1 [8]: 1.93 nM | EC50 (nM), NFAT-luciferase reporter, Experiment #2 [8]: 4.14 nM | Fold Change of Mean EC50 vs. Anti-PD-1 [8]: 1 fold | Mean EC50 (nM), NFAT-luciferase reporter [8]: 3.03 nM | EC50 [9]: 0.985 nM | EC50 [10]: 0.667 nM

B3: VL GL + VH WT (VAR1 variant DuetMab) (bispecific antibody)
chain 1: B2 VH
chain 2: B2 VL
chain 3: B1 VH with Q1E, S7T, V11L, V12I
chain 4: B1 VL with I29M
Kd [11]: 23.6 nM | Kd [12]: 4.43 nM | EC50 (read off the curve) [13]: ~4 nM

B4: VL WT + VH GL (VAR1 variant DuetMab) (bispecific antibody, V domains shown)
VH 1: B2 VH
VL 1: B2 VL
VH 2: B1 VH
VL 2: B1 VL with V3A, P8R, T13N, I29M, L40I, A75T, D86E, T108A
Kd [11]: 10.8 nM | Kd [12]: 3.09 nM

B5: PD1-TIGIT duetMab LO115/P-VAR1(VHWT-VLWT) (bispecific antibody, V domains shown)
VH 1: B2 VH
VL 1: B2 VL
VH 2: B1 VH with Q1E, S7T, V11L, V12I
VL 2: B1 VL with V3A, P8R, T13N, I29M, L40I, A75T, D86E, T108A
notes: DuetMab format; also called parental VAR1; P-VAR1 w.t; DuetMab
Kd [14]: 2.3 nM | koff [14]: 0.00378 s⁻¹ | kon [14]: 1.66e+06 M⁻¹ s⁻¹ | Kd [11]: 11.2 nM | Kd [15]: 32.1 nM | koff [15]: 0.0329 s⁻¹ | kon [15]: 1.03e+06 M⁻¹ s⁻¹ | Kd [12]: 2.56 nM | EC50 (read off the curve) [13]: ~2 nM | Kd [16]: 0.0099 nM | koff [16]: 4.64e-05 s⁻¹ | kon [16]: 4.67e+06 M⁻¹ s⁻¹

B6: VL GL + VH GL (VAR1 variant DuetMab) (bispecific antibody)
chain 1: B2 VH
chain 2: B2 VL
chain 3: B1 VH
chain 4: B1 VL with I29M
Kd [11]: 14.7 nM | Kd [12]: 3.28 nM
